The source of these data is paper PMC3818340.

Substrate in data set [1]: CC#CC(=O)C(=O)O
Put plainly: purified protein. Type of data set: biochemical, coryneform bacterium. To be noted: 20 mM sodium phosphate buffer, pH 9.0, 24 °C.

Substrate in data set [2]: CC#CC(=O)C(=O)O
In words: purified protein. Type of data set: biochemical, Pseudomonas pavonaceae. The following applies: 20 mM sodium phosphate buffer, pH 9.0, 24 °C.

B1: FG41 MSAD (coryneform bacterium) (protein)
chain: PLIRIDLTSDRSREQRRAIADAVHDALVEVLAIPARDRFQILTAHDPSDIIAEDAGLGFQRSPSVVIIHVFTQAGRTIETKQRVFAAITESLAPIGVAGSDVFIAITENAPHDWSFGFGSAQYVTGELAIPATGAA
For the protein B1, in data set [1], the Km worked out at 7.3 ± 0.8 mM, the kcat was determined as 0.17 ± 0.01 s⁻¹ and the kcat/Km was 20 M⁻¹ s⁻¹.

B2: FG41 MSAD (coryneform bacterium; Q73R) (protein)
chain: PLIRIDLTSDRSREQRRAIADAVHDALVEVLAIPARDRFQILTAHDPSDIIAEDAGLGFQRSPSVVIIHVFTRAGRTIETKQRVFAAITESLAPIGVAGSDVFIAITENAPHDWSFGFGSAQYVTGELAIPATGAA
On to B2, for which, in data set [1], the Km is 6.6 ± 1.5 mM, the kcat is 1.2 ± 0.2 s⁻¹ and the catalytic efficiency (kcat/Km) came to 180 M⁻¹ s⁻¹.

B3: FG41 MSAD (coryneform bacterium; Y123F) (protein)
chain: PLIRIDLTSDRSREQRRAIADAVHDALVEVLAIPARDRFQILTAHDPSDIIAEDAGLGFQRSPSVVIIHVFTQAGRTIETKQRVFAAITESLAPIGVAGSDVFIAITENAPHDWSFGFGSAQFVTGELAIPATGAA
B3: in data set [1], the Km is 21 ± 5 mM, the kcat stood at 0.7 ± 0.1 s⁻¹ and the kcat/Km worked out at 30 M⁻¹ s⁻¹.

B4: Pp MSAD (Pseudomonas pavonaceae) (protein)
chain: PLLKFDIFYGRTDAQIKSLLDAAHGAMVDAFGVPANDRYQTVSQHRPGEMVLEDTGLGYGRSSAVVLLTVISRPRSEEQKVCFYKLLTGALERDCGISPDDVIVALVENSDADWSFGRGRAEFLTGDLV
Turning to B4, in data set [2], the Km was determined as 3 ± 1.2 mM, the kcat was 3.4 ± 0.8 s⁻¹ and the kcat/Km was found to be 1130 M⁻¹ s⁻¹.
